Measured values from patent US20260242419A1, “A CYCLIC PEPTIDE FOR TRAPPING INTERLEUKIN-1 BETA” (Merck Sharp & Dohme LLC, priority 2023, published 2026).
Starred links: 1 amine or outer side, 2 acyl side, 3 side chain; linkers in the order of their positions; H or OH if unused. Non-standard residues stand in square brackets, D forms with d. No end group written: not given here. Phe(4-(5-CO2H-2-pyrimidyl)) = N[C@@H](Cc1ccc(-c2ncc(C(=O)O)cn2)cc1)C(=O)O; Phe(4-(4-Ac-piperazinyl)) = CC(=O)N1CCN(c2ccc(C[C@H](N)C(=O)O)cc2)CC1; dPro(4R-(4-pyridylmethyl)) = O=C(O)[C@H]1C[C@@H](Cc2ccncc2)CN1; Ala(piperidin-4-yl) = O=C([C@H](CC1CCN([*:3])CC1)N[*:1])[*:2]; Trp(βS-Me,4-F) = C[C@@H](c1c[nH]c2cccc(F)c12)[C@H](N)C(=O)O; Bip(4'-COOH) = N[C@@H](Cc1ccc(-c2ccc(C(=O)O)cc2)cc1)C(=O)O; Ala(1-bicyclo(1.1.1)pentyl) = N[C@@H](CC12CC(C1)C2)C(=O)O; dPro(4R-Bzl(4-F)) = O=C(O)[C@H]1C[C@@H](Cc2ccc(F)cc2)CN1; Ala(morpholin-4-yl) = N[C@@H](CN1CCOCC1)C(=O)O; Ala(piperazin-1-yl) = N[C@@H](CN1CCNCC1)C(=O)O; Ala(pyrimidin-5-yl) = N[C@@H](Cc1cncnc1)C(=O)O; Phe(4-COOH) = N[C@@H](Cc1ccc(C(=O)O)cc1)C(=O)O; Pro(cis-4-F) = O=C(O)[C@@H]1C[C@H](F)CN1; Ala(4-THP) = N[C@@H](CC1CCOCC1)C(=O)O; cisHyp = O=C(O)[C@@H]1C[C@H](O)CN1; d(αMeD) = C[C@@](N)(CC(=O)O)C(=O)O; 4Pal = N[C@@H](Cc1ccncc1)C(=O)O; aThr = C[C@H](O)[C@H](N)C(=O)O; αMeD = C[C@](N)(CC(=O)O)C(=O)O; d(αMeS) = C[C@@](N)(CO)C(=O)O; αMeK = C[C@](N)(CCCCN)C(=O)O; Dab = NCC[C@H](N)C(=O)O; Aib = CC(C)(N)C(=O)O

B1: SEQ ID NO: 176 (peptide)
peptide: cyclo([Bip(4'-COOH)][Ala(1-bicyclo(1.1.1)pentyl)][Phe(4-COOH)]G[Pro(cis-4-F)][Trp(βS-Me,4-F)][Aib]EW[Aib][Ala(piperidin-4-yl)]QSG[dPro(4R-(4-pyridylmethyl))])
modifications: ring closure inferred; not fully specified (bridges); printed as Bip4CO2H-AlaPent-Phe4COOH-G-Proc4F-SbMeW4F-Aib-E-W-Aib-AlaPip4-Q-S-G-dProc4CH24Pal, cyclic (macrolactam)
B2: SEQ ID NO: 189 (peptide)
peptide: [Bip(4'-COOH)][4Pal][Phe(4-COOH)]G[Pro(cis-4-F)][Trp(βS-Me,4-F)][Aib]SW[αMeD][Ala(4-THP)]QSG[dPro(4R-(4-pyridylmethyl))]
modifications: lactam (positions not given here); also: macrolactam ring, closure sites not given here
B3: SEQ ID NO: 182 (peptide)
peptide: [Bip(4'-COOH)][Ala(1-bicyclo(1.1.1)pentyl)][Phe(4-COOH)]G[cisHyp][Trp(βS-Me,4-F)][Aib][aThr]W[d(αMeD)][Ala(pyrimidin-5-yl)]Q[Dab]G[dPro(4R-(4-pyridylmethyl))]
modifications: lactam (positions not given here); also: macrolactam ring, closure sites not given here
B4: SEQ ID NO: 175 (peptide)
peptide: cyclo([Bip(4'-COOH)][Ala(1-bicyclo(1.1.1)pentyl)][Phe(4-COOH)]G[Pro(cis-4-F)][Trp(βS-Me,4-F)][Aib]SW[αMeK][Ala(piperazin-1-yl)]QSG[dPro(4R-Bzl(4-F))])
modifications: ring closure inferred; not fully specified (bridges); printed as Bip4CO2H-AlaPent-Phe4COOH-G-Proc4F-SbMeW4F-Aib-S-W-aMeK-AlaPiperaz-Q-S-G-dProc4Bn4F, cyclic (macrolactam)
B5: SEQ ID NO: 181 (peptide)
peptide: [Bip(4'-COOH)][Ala(1-bicyclo(1.1.1)pentyl)][Phe(4-COOH)]G[Pro(cis-4-F)][Trp(βS-Me,4-F)][Aib]SW[d(αMeS)][Ala(piperidin-4-yl)]QSG[dPro(4R-(4-pyridylmethyl))]
modifications: lactam (positions not given here); also: macrolactam ring, closure sites not given here
B6: SEQ ID NO: 183 (peptide)
peptide: [Phe(4-(4-Ac-piperazinyl))][4Pal][Phe(4-COOH)]G[Pro(cis-4-F)][Trp(βS-Me,4-F)][Aib]SW[Aib][Ala(pyrimidin-5-yl)]Q[Dab]G[dPro(4R-Bzl(4-F))]
modifications: lactam (positions not given here); also: macrolactam ring, closure sites not given here
B7: SEQ ID NO: 184 (peptide)
peptide: [Phe(4-(4-Ac-piperazinyl))][4Pal][Phe(4-COOH)]G[Pro(cis-4-F)][Trp(βS-Me,4-F)][Aib]SW[αMeD][Ala(pyrimidin-5-yl)]Q[Dab]G[dPro(4R-Bzl(4-F))]
modifications: lactam (positions not given here); also: macrolactam ring, closure sites not given here
B8: SEQ ID NO: 186 (peptide)
peptide: [Phe(4-(5-CO2H-2-pyrimidyl))][4Pal][Phe(4-COOH)]G[Pro(cis-4-F)][Trp(βS-Me,4-F)][Aib]SW[Aib][Ala(pyrimidin-5-yl)]Q[Dab]G[dPro(4R-(4-pyridylmethyl))]
modifications: lactam (positions not given here); also: macrolactam ring, closure sites not given here
B9: SEQ ID NO: 178 (peptide)
peptide: cyclo([Bip(4'-COOH)][Ala(1-bicyclo(1.1.1)pentyl)][Phe(4-COOH)]G[Pro(cis-4-F)][Trp(βS-Me,4-F)][Aib]EW[d(αMeS)][Ala(piperidin-4-yl)]QSG[dPro(4R-(4-pyridylmethyl))])
modifications: ring closure inferred; not fully specified (bridges); printed as Bip4CO2H-AlaPent-Phe4COOH-G-Proc4F-SbMeW4F-Aib-E-W-daMeS-AlaPip4-Q-S-G-dProc4CH24Pal, cyclic (macrolactam)
B10: SEQ ID NO: 187 (peptide)
peptide: [Phe(4-(5-CO2H-2-pyrimidyl))][4Pal][Phe(4-COOH)]G[Pro(cis-4-F)][Trp(βS-Me,4-F)][Aib]SW[αMeD][Ala(pyrimidin-5-yl)]Q[Dab]G[dPro(4R-(4-pyridylmethyl))]
modifications: lactam (positions not given here); also: macrolactam ring, closure sites not given here
B11: SEQ ID NO: 180 (peptide)
peptide: [Bip(4'-COOH)][Ala(1-bicyclo(1.1.1)pentyl)][Phe(4-COOH)]G[Pro(cis-4-F)][Trp(βS-Me,4-F)][Aib]SW[Aib][Ala(piperidin-4-yl)]QSG[dPro(4R-(4-pyridylmethyl))]
modifications: lactam (positions not given here); also: macrolactam ring, closure sites not given here
B12: SEQ ID NO: 177 (peptide)
peptide: cyclo([Bip(4'-COOH)][Ala(1-bicyclo(1.1.1)pentyl)][Phe(4-COOH)]G[Pro(cis-4-F)][Trp(βS-Me,4-F)][Aib]EW[d(αMeS)][Ala(morpholin-4-yl)]QSG[dPro(4R-(4-pyridylmethyl))])
modifications: ring closure inferred; not fully specified (bridges); printed as Bip4CO2H-AlaPent-Phe4COOH-G-Proc4F-SbMeW4F-Aib-E-W-daMeS-AlaMph-Q-S-G-dProc4CH24Pal, cyclic (macrolactam)
B13: SEQ ID NO: 179 (peptide)
peptide: [Bip(4'-COOH)][Ala(1-bicyclo(1.1.1)pentyl)][Phe(4-COOH)]G[Pro(cis-4-F)][Trp(βS-Me,4-F)][Aib]SW[Aib][Ala(morpholin-4-yl)]QSG[dPro(4R-(4-pyridylmethyl))]
modifications: lactam (positions not given here); also: macrolactam ring, closure sites not given here
B14: SEQ ID NO: 185 (peptide)
peptide: [Phe(4-(5-CO2H-2-pyrimidyl))][Ala(1-bicyclo(1.1.1)pentyl)][Phe(4-COOH)]G[cisHyp][Trp(βS-Me,4-F)][Aib]SW[Aib][Ala(pyrimidin-5-yl)]Q[Dab]G[dPro(4R-(4-pyridylmethyl))]
modifications: lactam (positions not given here); also: macrolactam ring, closure sites not given here
B15: SEQ ID NO: 174 (peptide)
peptide: cyclo([Bip(4'-COOH)][Ala(1-bicyclo(1.1.1)pentyl)][Phe(4-COOH)]G[Pro(cis-4-F)][Trp(βS-Me,4-F)][Aib]SW[αMeK][Ala(morpholin-4-yl)]Q[Dab]G[dPro(4R-Bzl(4-F))])
modifications: ring closure inferred; not fully specified (bridges); printed as Bip4CO2H-AlaPent-Phe4COOH-G-Proc4F-SbMeW4F-Aib-S-W-aMeK-AlaMph-Q-Dab-G-dProc4Bn4F, cyclic (macrolactam)
B16: SEQ ID NO: 172 (peptide)
peptide: cyclo([Bip(4'-COOH)][Ala(1-bicyclo(1.1.1)pentyl)][Phe(4-COOH)]G[Pro(cis-4-F)][Trp(βS-Me,4-F)][Aib]SW[d(αMeS)][Ala(piperidin-4-yl)]Q[Dab]G[dPro(4R-Bzl(4-F))])
modifications: ring closure inferred; not fully specified (bridges); printed as Bip4CO2H-AlaPent-Phe4COOH-G-Proc4F-SbMeW4F-Aib-S-W-daMeS-AlaPip4-Q-Dab-G-dProc4Bn4F, cyclic (macrolactam)
B17: SEQ ID NO: 173 (peptide)
peptide: cyclo([Bip(4'-COOH)][Ala(1-bicyclo(1.1.1)pentyl)][Phe(4-COOH)]G[Pro(cis-4-F)][Trp(βS-Me,4-F)][Aib]SW[αMeK][Ala(morpholin-4-yl)]QSG[dPro(4R-Bzl(4-F))])
modifications: ring closure inferred; not fully specified (bridges); printed as Bip4CO2H-AlaPent-Phe4COOH-G-Proc4F-SbMeW4F-Aib-S-W-aMeK-AlaMph-Q-S-G-dProc4Bn4F, cyclic (macrolactam)
B18: SEQ ID NO: 188 (peptide)
peptide: [Phe(4-(5-CO2H-2-pyrimidyl))][Ala(1-bicyclo(1.1.1)pentyl)][Phe(4-COOH)]G[Pro(cis-4-F)][Trp(βS-Me,4-F)][Aib]SW[αMeD][Ala(pyrimidin-5-yl)]Q[Dab]G[dPro(4R-(4-pyridylmethyl))]
modifications: lactam (positions not given here); also: macrolactam ring, closure sites not given here

The binders below were run against Recombinant human IL-1β (BioLegend 579404) (human, UniProt P01584 117-269) (assay: cell-based or functional assay).

First: B1
Second: B2
The “MRC5 IC50” value of the first is 2.2-fold higher: 0.036 nM for the first, 0.016 nM for the second.

Going from B3 to cyclo([Bip(4'-COOH)][Ala(1-bicyclo(1.1.1)pentyl)][Phe(4-COOH)]G[Pro(cis-4-F)][Trp(βS-Me,4-F)][Aib]SW[d(αMeS)][Ala(morpholin-4-yl)]Q[Dab]G[dPro(4R-Bzl(4-F))]) (ring closure inferred) [SEQ ID NO: 170], the “MRC5 IC50” value falls from 0.049 nM to 0.015 nM (3.3-fold).

First: B4
Second: B5
The “MRC5 IC50” value of the first is 1.8-fold higher: 0.037 nM for the first, 0.021 nM for the second.

First: B6
Second: B7
The “MRC5 IC50” value of the first is 1.8-fold higher: 0.025 nM for the first, 0.014 nM for the second.

Going from B8 to B9, the “MRC5 IC50” value rises from 0.015 nM to 0.041 nM (2.7-fold).

Compared with B10, B11 is 1.8-fold higher in “MRC5 IC50” value: 0.015 nM for the first, 0.027 nM for the second.

B12 and B13 are within 1.5-fold of each other in “MRC5 IC50” value: 0.031 nM for the first, 0.029 nM for the second.

Compared with B14, B15 is 1.7-fold lower in “MRC5 IC50” value: 0.043 nM for the first, 0.025 nM for the second.

First: B16
Second: B17
The “MRC5 IC50” value of the first is 2.3-fold lower: 0.016 nM for the first, 0.037 nM for the second.

B18 and cyclo([Bip(4'-COOH)][Ala(1-bicyclo(1.1.1)pentyl)][Phe(4-COOH)]G[Pro(cis-4-F)][Trp(βS-Me,4-F)][Aib]SW[d(αMeS)][Ala(piperazin-1-yl)]Q[Dab]G[dPro(4R-Bzl(4-F))]) (ring closure inferred) [SEQ ID NO: 171] are within 1.5-fold of each other in “MRC5 IC50” value: 0.02 nM for the first, 0.016 nM for the second.
